Results from patent publication US20030022833A1 (GREENVILLE HOSPITAL SYSTEM, published 2003).
“And” between values parts separate entries of the source, which are not always exact repeats. Equal entries are not always repeated. Blank lines part the entries; values can stand above or below the molecule they belong to.

Biological target: T1, human prolactin receptor (human, UniProt P16471 25-622)
T1 sequence (looked up): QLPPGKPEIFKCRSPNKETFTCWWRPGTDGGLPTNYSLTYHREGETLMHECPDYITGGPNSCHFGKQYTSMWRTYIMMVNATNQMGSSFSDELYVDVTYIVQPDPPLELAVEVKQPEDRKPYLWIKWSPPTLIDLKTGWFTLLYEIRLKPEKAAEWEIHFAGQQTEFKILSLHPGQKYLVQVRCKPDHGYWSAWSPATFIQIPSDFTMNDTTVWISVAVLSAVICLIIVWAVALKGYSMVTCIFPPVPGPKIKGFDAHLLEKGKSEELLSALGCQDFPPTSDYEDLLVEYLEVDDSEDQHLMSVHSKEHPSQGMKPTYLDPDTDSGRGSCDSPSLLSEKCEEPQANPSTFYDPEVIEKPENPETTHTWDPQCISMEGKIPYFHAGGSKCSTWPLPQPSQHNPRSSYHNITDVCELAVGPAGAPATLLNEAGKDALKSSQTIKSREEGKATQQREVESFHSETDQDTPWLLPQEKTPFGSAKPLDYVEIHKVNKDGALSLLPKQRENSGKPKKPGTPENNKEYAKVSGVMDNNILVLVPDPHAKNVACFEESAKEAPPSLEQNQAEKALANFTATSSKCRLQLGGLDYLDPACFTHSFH
Assay: cell-based or functional assay

T47-D cell proliferation (96 well MTS assay) (molar ratio hPRL-G129R:hPRL): 1 and 2 | apoptosis (DNA fragmentation, TUNEL assay) in T-47D cells: 1 | tyrosine phosphorylation of STAT proteins in T47-D cells (anti-phosphotyrosine immunoblot) (ratio hPRL-G129R:hPRL): 5
Molecule: G129R variant of human prolactin (from UniProt P01236 29-227) (ligand)

apoptosis (DNA fragmentation, TUNEL assay) in T-47D cells: 4 ratio hPRL:G129R
B1: human prolactin (ligand, UniProt P01236 29-227, looked up)
chain: LPICPGGAARCQVTLRDLFDRAVVLSHYIHNLSSEMFSEFDKRYTHGRGFITKAINSCHTSSLATPEDKEQAQQMNQKDFLSLIVSILRSWNEPLYHLVTEVRGMQEAPEAILSKAVEIEEQTKRLLEGMELIVSQVHPETKENEIYPVWSGLPSLQMADEESRLSAYYNLLHCLRRDSHKIDNYLKLLKCRIIHNNNC
